For 7 molecules, Kd and fold increase in binding affinity against MAR-IL4 results are on record in patent US6685932.

T1 sequence (P24394 26-232 limits assumed): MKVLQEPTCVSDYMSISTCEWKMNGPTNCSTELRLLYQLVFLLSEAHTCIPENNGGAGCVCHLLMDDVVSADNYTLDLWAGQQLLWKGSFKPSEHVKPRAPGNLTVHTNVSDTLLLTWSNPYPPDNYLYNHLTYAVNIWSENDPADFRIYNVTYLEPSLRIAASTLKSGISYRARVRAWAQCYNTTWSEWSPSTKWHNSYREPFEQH

One assay concerns the target T1, extracellular domain of the IL-4Rα (IL-4 binding protein), P24394. As to the kind of experiment: biosensor (BIA2000), IL4BP on a streptavidin matrix, room temperature.
As for RMKQLEKKVERLLKRNYRLENEVARLKKLVG (modifications not checked) [Model 2a], the Kd (usually the free concentration of one partner at which half of the binding sites on the other are occupied at equilibrium, for simple one-to-one binding) turned out to be 2000 µM. This lies in the millimolar range. Same read-out and setting: with RMKQLEKKVERLLKRNYRLEWEVARLKKLVG (modifications not checked) [Model 2c] the figure was 100 µM.

The target of a further assay is T1, extracellular domain of the IL-4Rα …. As to the kind of experiment: biosensor (BIA2000), compared with MAR-IL4.
In turn, RMKQLEKKVERLLKRNYRLEWEVIRCKKLVG (modifications not checked) [26CMAR-IL4] displayed a fold increase in binding affinity against MAR-IL4 of 5 fold. Regarding RMKQLEKKVERCLKRNYRLEWEVIRLKKLVG (modifications not checked) [12CMAR-IL4], the fold increase in binding affinity against MAR-IL4 amounted to 5 fold.

The target is the same in a further assay. Briefly: biosensor (BIA2000), IL4BP biotinylated at Cys-206 on a streptavidin matrix, 25 C.
Turning to RMKQLEKKVERLLKRNYRLENEVARLKKLVG (modifications not checked) [Model 2a], the Kd amounted to 2160 µM. On to RMKQLEKKVERLLKRNYRLEWEVIRCKKLVG (modifications not checked) [26CMAR-IL4], for which the Kd is 5 to 10 µM.

Consider RMKQLEKKVERLLKRNYRLENEVIRLKKLVG (modifications not checked) [Model 2b], for which the equilibrium dissociation constant (Kd) is 193 µM. RMKQLEKKVERCLKRNYRLEWEVIRLKKLVG (modifications not checked) [12CMAR-IL4] registered a Kd of 5 µM. This Kd is about 39-fold lower than that of the molecule before. Turning to RMKQLEKKVERLLKRNYRLEWEVIRLKKLVG (modifications not checked) [MAR-IL4], the Kd worked out at 26 µM.

As to RMKQLEKKVERLLKRNYRLEWEVARLKKLVG (modifications not checked) [Model 2c], the dissociation constant (Kd) stood at 106 µM.

Consider RMKQLEKKVERCLKRLYRNEWEVIRLKKLVG (modifications not checked) [12CNMAR-IL4], for which the Kd is 5 µM.
